Experiment [1] has as its target T1, M.EcoR124INT methyltransferase (UniProt P10484 1-520; P10485 1-215).
T1 construct: HsdM (modification subunit, M) of the Type I restriction-modification system EcoR124I; SNT: residues 1-215 of the parent specificity subunit HsdS (S) of EcoR124I, holding the N-terminal target recognition domain and the central conserved region; Complex formed beforehand (M and SNT), to which HsdR was added; M2 stoichiometry is printed for Type I MTases in general (M2S); 'two modified SNT …
T1 sequence (looked up) 1: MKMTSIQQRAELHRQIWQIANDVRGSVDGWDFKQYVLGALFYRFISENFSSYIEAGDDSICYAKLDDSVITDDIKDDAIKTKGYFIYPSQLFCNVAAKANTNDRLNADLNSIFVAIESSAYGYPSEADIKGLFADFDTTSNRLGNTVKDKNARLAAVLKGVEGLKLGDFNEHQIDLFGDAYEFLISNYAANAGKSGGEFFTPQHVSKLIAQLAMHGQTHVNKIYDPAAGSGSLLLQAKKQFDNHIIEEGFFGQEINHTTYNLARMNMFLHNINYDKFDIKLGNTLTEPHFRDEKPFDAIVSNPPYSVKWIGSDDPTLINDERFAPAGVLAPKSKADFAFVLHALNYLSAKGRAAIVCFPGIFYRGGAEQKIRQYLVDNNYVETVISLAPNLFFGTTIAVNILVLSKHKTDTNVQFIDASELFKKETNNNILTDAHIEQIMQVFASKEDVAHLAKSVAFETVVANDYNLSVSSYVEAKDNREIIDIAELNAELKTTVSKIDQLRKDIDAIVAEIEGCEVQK
T1 sequence (looked up) 2: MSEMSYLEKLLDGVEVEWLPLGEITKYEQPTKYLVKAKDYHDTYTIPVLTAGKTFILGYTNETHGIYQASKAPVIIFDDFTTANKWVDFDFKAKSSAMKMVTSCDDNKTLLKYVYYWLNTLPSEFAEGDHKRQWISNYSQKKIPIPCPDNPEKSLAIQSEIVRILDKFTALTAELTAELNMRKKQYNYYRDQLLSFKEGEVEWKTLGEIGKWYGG
The experiment can be described thus: small-angle neutron scattering; ENase formed at 2:1 molar ratio HsdR:MTase, ca. 3 uM, buffer A; fully protonated complex in H2O, and complex with deuterated HsdR and protonated MTase in 40% D2O (MTase matched out). The note with it: both partners purified.

Experiment [2] has as its target T1, M.EcoR124INT methyltransferase. The experiment can be described thus: native gel or EMSA; purified HsdR mixed with MTase at 1:1 and 2:1 molar ratios, then with a 30 bp DNA duplex with the recognition sequence (1:1 enzyme:DNA); 2 uM MTase and DNA, 2 or 4 uM HsdR; 6% non-denaturing polyacrylamide gel, 150 V, 2.5 h, 0.25x TBE; no difference with 10 mM MgCl2. The note with it: both partners purified.

B1: HsdR from EcoR124I (enzyme, UniProt P10486 1-1038, looked up)
chain: MTHQTHTIAESNNFIVLDKYIKAEPTGDSYQSESDLERELIQDLRNQGYEFISVKSQSAMLANVREQLQNLNGVVFNDSEWRRFTEQYLDNPSDGILDKTRKIHIDYICDFIFDDERLENIYLIDKKNLMRNKVQIIQQFEQAGSHANRYDVTILVNGLPLVQIELKKRGVAIREAFNQIHRYSKESFNSENSLFKYLQLFVISNGTDTRYFANTTKRDKNSFDFTMNWAKSDNTLIKDLKDFTATCFQKHTLLNVLVNYSVFDSSQTLLVMRPYQIAATERILWKIKSSFTAKNWSKPESGGYIWHTTGSGKTLTSFKAARLATELDFIDKVFFVVDRKDLDYQTMKEYQRFSPDSVNGSENTAGLKRNLDKDDNKIIVTTIQKLNNLMKAESDLPVYNQQVVFIFDECHRSQFGEAQKNLKKKFKRYYQFGFTGTPIFPENALGSETTASVFGRELHSYVITDAIRDEKVLKFKVDYNDVRPQFKSLETETDEKKLSAAENQQAFLHPMRIQEITQYILNNFRQKTHRTFPGSKGFNAMLAVSSVDAAKAYYATFKRLQEEAANKSATYKPLRIATIFSFAANEEQNAIGEISDETFDTSAMDSSAKEFLDAAIREYNSHFKTNFSTDSNGFQNYYRDLAQRVKNQDIDLLIVVGMFLTGFDAPTLNTLFVDKNLRYHGLMQAFSRTNRIYDATKTFGNIVTFRDLERSTIDAITLFGDKNTKNVVLEKSYTEYMEGFTDAATGEAKRGFMTVVSELEQRFPDPTSIESEKEKKDFVKLFGEYLRAENILQNYDEFATLKALQQIDLSDPVAVEKFKAEHYVDDEKFAELQTIRLPADRKIQDYRSAYNDIRDWQRREKEAEKKEKSTTDWDDVVFEVDLLKSQEINLDYILGLIFEHNRQNKGKGEMIEEVKRLIRSSLGNRAKEGLVVDFIQQTNLDDLPDKASIIDAFFTFAQREQQREAEALIKEENLNEDAAKRYIRTSLKREYATENGTELNETLPKLSPLNPQYKTKKQAVFQKIVSFIEKFKGVGGKI
notes: HsdR (restriction / motor subunit) of the Type I restriction-modification system EcoR124I; about 120 kDa as printed; For one SANS sample the same protein was made about 75% deuterated (85% D2O minimal medium); also called R subunit; motor subunit; source: expressed and purified as described previously [24]; deuterated form from BL21 (DE3) with the expression plasmid pBGSR124
On to B1, for which the stoichiometry N (in general, a count of units in the complex or per binding partner) in experiment [1] worked out at 2 HsdR per complex; in experiment [2] it was 2 HsdR per MTase.

The record behind these values is publication PMC3320862, “Structural and Functional Analysis of the Symmetrical Type I Restriction Endonuclease R.EcoR124INT” (PLOS One, 2012).
